# Laboratory results: the supplement of paper PMC9112550, “Optimization of the antimicrobial peptide Bac7 by deep mutational scanning” (BMC Biology, 2022)
# Test system: Escherichia coli TOP10
# Experiment: shrunken log2 fold change of peptide-encoding DNA abundance (4.5 h post-induction vs induction); higher = less antimicrobial activity (less host growth inhibition)
# Details: time post-induction: 4.5 h; library: site-saturation at positions 5, 18, 19, 20
# 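Also: peptides expressed intracellularly from a pBAD plasmid library in pooled LB shake-flask culture, induced with 0.3% L-arabinose, DNA abundance read by NGS, three biological replicates, DESeq2 with apeglm shrinkage.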
row,Sequence,shrunken log2 fold change
1,RRIRWRPPRLPRPRPRPYQWPRP,-0.0641
2,RRIRLRPPRLPRPRPRPLRYPRP,-0.0797
3,RRIRTRPPRLPRPRPRPKCRPRP,0.0762
4,RRIRFRPPRLPRPRPRPNDDPRP,-0.755
5,RRIRIRPPRLPRPRPRPPYTPRP,-0.822
6,RRIRYRPPRLPRPRPRPPFPPRP,-0.0826
7,RRIRWRPPRLPRPRPRPGTWPRP,0.0354
8,RRIRERPPRLPRPRPRPVVSPRP,-0.0681
9,RRIRMRPPRLPRPRPRPQHEPRP,0.212
10,RRIRQRPPRLPRPRPRPYIQPRP,-0.32
11,RRIRWRPPRLPRPRPRPCWQPRP,-0.0167
12,RRIRARPPRLPRPRPRPCEIPRP,0.196
13,RRIRMRPPRLPRPRPRPFILPRP,-0.41
14,RRIRMRPPRLPRPRPRPHGPPRP,0.752
15,RRIRSRPPRLPRPRPRPWNRPRP,-0.125
16,RRIRSRPPRLPRPRPRPTLRPRP,-0.197
17,RRIRYRPPRLPRPRPRPESMPRP,-0.267
18,RRIRIRPPRLPRPRPRPNWEPRP,0.00543
19,RRIRLRPPRLPRPRPRPQLEPRP,-0.0629
20,RRIRIRPPRLPRPRPRPEHEPRP,-0.434
21,RRIRARPPRLPRPRPRPHNYPRP,-0.303
22,RRIRMRPPRLPRPRPRPSGKPRP,0.222
23,RRIRYRPPRLPRPRPRPNWTPRP,-0.00491
24,RRIRPRPPRLPRPRPRPLRIPRP,0.0628
25,RRIRLRPPRLPRPRPRPYLNPRP,-1.13

row,Sequence,shrunken log2 fold change
1,RRIRLRPPRLPRPRPRPMGHPRP,-0.0276
2,RRIRSRPPRLPRPRPRPSGSPRP,-0.151
3,RRIRVRPPRLPRPRPRPGQVPRP,0.0448
4,RRIRWRPPRLPRPRPRPAYRPRP,-0.00641
5,RRIRCRPPRLPRPRPRPRFNPRP,-0.288
6,RRIRHRPPRLPRPRPRPYPKPRP,-0.193
7,RRIRIRPPRLPRPRPRPIQIPRP,-0.0257
8,RRIRPRPPRLPRPRPRPFKSPRP,-0.222
9,RRIRMRPPRLPRPRPRPYWIPRP,-0.157
10,RRIRSRPPRLPRPRPRPSDWPRP,0.0164
11,RRIRQRPPRLPRPRPRPPLCPRP,0.28
12,RRIRQRPPRLPRPRPRPTTLPRP,-0.196
13,RRIRLRPPRLPRPRPRPYRDPRP,0.0076
14,RRIRSRPPRLPRPRPRPRDWPRP,0.4
15,RRIRQRPPRLPRPRPRPIQRPRP,-0.0376
16,RRIRRRPPRLPRPRPRPIEAPRP,-0.137
17,RRIRNRPPRLPRPRPRPDHHPRP,0.109
18,RRIRTRPPRLPRPRPRPNVIPRP,-0.372
19,RRIRWRPPRLPRPRPRPSQGPRP,0.27
20,RRIRERPPRLPRPRPRPLQEPRP,-0.154
21,RRIRERPPRLPRPRPRPSPTPRP,0.0865
22,RRIRCRPPRLPRPRPRPIIDPRP,-0.323
23,RRIRLRPPRLPRPRPRPCCRPRP,0.0477
24,RRIRARPPRLPRPRPRPYRHPRP,-0.157
25,RRIRGRPPRLPRPRPRPRGHPRP,1.11

row,Sequence,shrunken log2 fold change
1,RRIRKRPPRLPRPRPRPMHPPRP,0.19
2,RRIRLRPPRLPRPRPRPGHLPRP,0.00551
3,RRIRSRPPRLPRPRPRPACFPRP,1.54
4,RRIRHRPPRLPRPRPRPNIVPRP,-0.0257
5,RRIRFRPPRLPRPRPRPRMTPRP,0.128
6,RRIRLRPPRLPRPRPRPGIIPRP,-0.116
7,RRIRIRPPRLPRPRPRPISKPRP,-0.161
8,RRIRPRPPRLPRPRPRPNAVPRP,0.0397
9,RRIRNRPPRLPRPRPRPAFCPRP,0.0699
10,RRIRVRPPRLPRPRPRPVEEPRP,-0.143
11,RRIRERPPRLPRPRPRPCGPPRP,-0.131
12,RRIRMRPPRLPRPRPRPDNRPRP,0.00102
13,RRIRFRPPRLPRPRPRPFGGPRP,-0.0524
14,RRIRKRPPRLPRPRPRPSQQPRP,0.312
15,RRIRRRPPRLPRPRPRPTINPRP,-0.134
16,RRIRARPPRLPRPRPRPNECPRP,-0.409
17,RRIRLRPPRLPRPRPRPYESPRP,-0.957
18,RRIRQRPPRLPRPRPRPDLPPRP,-0.134
19,RRIRGRPPRLPRPRPRPDCTPRP,0.615
20,RRIRPRPPRLPRPRPRPKHLPRP,-0.355
21,RRIRDRPPRLPRPRPRPFCMPRP,0.00343
22,RRIRCRPPRLPRPRPRPPRWPRP,1.16
23,RRIRFRPPRLPRPRPRPNRYPRP,-0.319
24,RRIRYRPPRLPRPRPRPVQKPRP,0.0112
25,RRIRYRPPRLPRPRPRPQMIPRP,0.0722
